Paper PMC10325903, “Prediction of cooperative homeodomain DNA binding sites from high-throughput-SELEX data”

How the values were obtained:
Assay in all cases: EMSA; EMSA, 34 nM IRDye700 probe, room temperature 20 min, 4% polyacrylamide gel 150 V 2 h; binding buffer as in cited ref 35 (not given)
[1] = target: Alx4 HD fragment (UniProt O35137 157-291); details: protein: recombinant; tags: N-terminal 6xHis (pET-14b or pET-14P; may be cleaved); chain copies: 2; label: 5' IRDye700 on bottom strand; blunt
[2] = target: MSX1 HD fragment (UniProt P28360 131-258); details: protein: recombinant; tags: N-terminal 6xHis (pET-14b or pET-14P; may be cleaved); label: 5' IRDye700 on bottom strand; blunt
[3] = target: HESX1 HD fragment (UniProt Q9UBX0 65-185); details: protein: recombinant; tags: N-terminal 6xHis (pET-14b or pET-14P; may be cleaved); label: 5' IRDye700 on bottom strand; blunt
[4] = target: Msx2 HD fragment (UniProt Q03358 99-227); details: protein: recombinant; tags: N-terminal 6xHis (pET-14b or pET-14P; may be cleaved); chain copies: 2; label: 5' IRDye700 on bottom strand; blunt
[5] = target: Gsx1 HD fragment (UniProt P31315 127-261); details: protein: recombinant; tags: N-terminal 6xHis (pET-14b or pET-14P; may be cleaved); chain copies: 2; label: 5' IRDye700 on bottom strand; blunt
[6] = target: T1, VENTX HD fragment (UniProt O95231 69-178); details: protein: recombinant; tags: N-terminal 6xHis (pET-14b or pET-14P; may be cleaved); chain copies: 2; label: 5' IRDye700 on bottom strand; blunt
T1 sequence: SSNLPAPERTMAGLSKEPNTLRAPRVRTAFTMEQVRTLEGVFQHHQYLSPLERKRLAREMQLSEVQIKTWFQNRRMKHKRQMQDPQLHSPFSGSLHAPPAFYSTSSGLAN

[7] = target: Alx1 (Cart1) HD fragment (UniProt Q8C8B0 105-220); details: protein: recombinant; tags: N-terminal 6xHis (pET-14b or pET-14P; may be cleaved); chain copies: 2; label: 5' IRDye700 on bottom strand; blunt
Alx1 (Cart1) HD fragment, sequence (Q8C8B0 105-220): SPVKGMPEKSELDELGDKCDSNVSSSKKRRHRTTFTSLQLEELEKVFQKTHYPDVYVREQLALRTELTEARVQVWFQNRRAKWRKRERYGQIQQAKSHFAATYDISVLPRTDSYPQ

Alx4 HD fragment, sequence (O35137 157-291): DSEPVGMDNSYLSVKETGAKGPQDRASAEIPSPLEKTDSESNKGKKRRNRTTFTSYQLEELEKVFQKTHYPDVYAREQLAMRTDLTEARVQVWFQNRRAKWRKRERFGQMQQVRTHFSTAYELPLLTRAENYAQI
HESX1 HD fragment, sequence (Q9UBX0 65-185): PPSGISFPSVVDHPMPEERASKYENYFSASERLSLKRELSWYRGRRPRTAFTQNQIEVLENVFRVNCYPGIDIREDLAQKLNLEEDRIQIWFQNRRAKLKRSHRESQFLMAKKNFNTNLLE
MSX1 HD fragment, sequence (P28360 131-258): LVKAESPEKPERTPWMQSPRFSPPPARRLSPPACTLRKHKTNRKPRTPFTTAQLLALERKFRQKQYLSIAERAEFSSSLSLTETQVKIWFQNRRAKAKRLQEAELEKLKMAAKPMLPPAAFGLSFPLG
Gsx1 HD fragment, sequence (P31315 127-261): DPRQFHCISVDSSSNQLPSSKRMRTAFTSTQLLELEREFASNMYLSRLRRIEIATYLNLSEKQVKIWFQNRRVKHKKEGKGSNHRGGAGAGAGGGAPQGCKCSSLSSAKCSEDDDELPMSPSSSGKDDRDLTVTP
Msx2 HD fragment, sequence (Q03358 99-227): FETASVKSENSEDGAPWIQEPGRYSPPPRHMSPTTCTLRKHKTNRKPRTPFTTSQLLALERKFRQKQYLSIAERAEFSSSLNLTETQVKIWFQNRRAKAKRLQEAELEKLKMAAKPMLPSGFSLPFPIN

B1: Alx4_SELEX_1 (dsDNA)
DNA 1: TGTGTCTTAATTAGATTAACGCACTTGATAGTGCGGGCGTGGCT
DNA 2: AGCCACGCCCGCACTATCAAGTGCGTTAATCTAATTAAGACACA
- cooperativity factor (tau) [1]: 167 ± 23.1 Tau cooperativity factor

B2: MSX1_SELEX_1+1 (dsDNA)
DNA 1: TGCGAACAGAAGCCAATTAGTGGCTAATTGGCCAATTAGCTAGTGCGGGCGTGGCT
DNA 2: AGCCACGCCCGCACTAGCTAATTGGCCAATTAGCCACTAATTGGCTTCTGTTCGCA
- cooperativity factor (tau) [2]: 1.2 ± 0.2 Tau cooperativity factor

B3: HESX1_HOMER (dsDNA)
DNA 1: TCTTCTCTAATTAGTGCTAATTCTGTAGTGCGGGCGTGGCT
DNA 2: AGCCACGCCCGCACTACAGAATTAGCACTAATTAGAGAAGA
- cooperativity factor (tau) [3]: 1.7 ± 2 Tau cooperativity factor

B4: Alx4_SELEX_1+1 (dsDNA)
DNA 1: TGTGTCTTAATTAGGATTAACGCACTTGATAGTGCGGGCGTGGCT
DNA 2: AGCCACGCCCGCACTATCAAGTGCGTTAATCCTAATTAAGACACA
- cooperativity factor (tau) [1]: 1.1 ± 0.8 Tau cooperativity factor

B5: Msx2_SELEX_2 (dsDNA)
DNA 1: TGCGGGGCAATTAAATACCAATTAGTGATAGTGCGGGCGTGGCT
DNA 2: AGCCACGCCCGCACTATCACTAATTGGTATTTAATTGCCCCGCA
- cooperativity factor (tau) [4]: 14 ± 2.6 Tau cooperativity factor

B6: Gsx1_HOMER (dsDNA)
DNA 1: TCACACTTAATTACTAATTAATTACGTAGTGCGGGCGTGGCT
DNA 2: AGCCACGCCCGCACTACGTAATTAATTAGTAATTAAGTGTGA
- cooperativity factor (tau) [5]: 48.7 ± 12.9 Tau cooperativity factor

B7: VENTX_SELEX_1+1 (dsDNA)
DNA 1: TGAAGTTAAGCCTAATCGATAGAACGATTAGCGTTAGGAATAGTGCGGGCGTGGCT
DNA 2: AGCCACGCCCGCACTATTCCTAACGCTAATCGTTCTATCGATTAGGCTTAACTTCA
- cooperativity factor (tau) [6]: 3.3 ± 3 Tau cooperativity factor

B8: MSX1_SELEX_1 (dsDNA)
DNA 1: TGCGAACAGAAGCCAATTAGTGCTAATTGGCCAATTAGCTAGTGCGGGCGTGGCT
DNA 2: AGCCACGCCCGCACTAGCTAATTGGCCAATTAGCACTAATTGGCTTCTGTTCGCA
- cooperativity factor (tau) [2]: 1.2 ± 0.1 Tau cooperativity factor

B9: HESX1_HOMER+1 (dsDNA)
DNA 1: TCTTCTCTAATTAGTGGCTAATTCTGTAGTGCGGGCGTGGCT
DNA 2: AGCCACGCCCGCACTACAGAATTAGCCACTAATTAGAGAAGA
- cooperativity factor (tau) [3]: 1.3 ± 1.8 Tau cooperativity factor

B10: Msx2_SELEX_2+1 (dsDNA)
DNA 1: TGCGGGGCAATTAAATGACCAATTAGTGATAGTGCGGGCGTGGCT
DNA 2: AGCCACGCCCGCACTATCACTAATTGGTCATTTAATTGCCCCGCA
- cooperativity factor (tau) [4]: 2.1 ± 0.6 Tau cooperativity factor

B11: Alx1_SELEX_2 (dsDNA)
DNA 1: TGCGCCTAATTAGATTAACCTGAACAGATAGTGCGGGCGTGGCT
DNA 2: AGCCACGCCCGCACTATCTGTTCAGGTTAATCTAATTAGGCGCA
- cooperativity factor (tau) [7]: 126 ± 27.2 Tau cooperativity factor

B12: VENTX_SELEX_1 (dsDNA)
DNA 1: TGAAGTTAAGCCTAATCGATAAACGATTAGCGTTAGGAATAGTGCGGGCGTGGCT
DNA 2: AGCCACGCCCGCACTATTCCTAACGCTAATCGTTTATCGATTAGGCTTAACTTCA
- cooperativity factor (tau) [6]: 36.7 ± 3.9 Tau cooperativity factor

B13: Alx1_SELEX_2+1 (dsDNA)
DNA 1: TGCGCCTAATTAGGATTAACCTGAACAGATAGTGCGGGCGTGGCT
DNA 2: AGCCACGCCCGCACTATCTGTTCAGGTTAATCCTAATTAGGCGCA
- cooperativity factor (tau) [7]: 10.1 ± 9.7 Tau cooperativity factor

B14: Gsx1_HOMER+1 (dsDNA)
DNA 1: TCACACTTAATTACTGAATTAATTACGTAGTGCGGGCGTGGCT
DNA 2: AGCCACGCCCGCACTACGTAATTAATTCAGTAATTAAGTGTGA
- cooperativity factor (tau) [5]: 2.9 ± 0.9 Tau cooperativity factor
